Broadly, the IC50 is the midpoint of a concentration-inhibition curve.

One substance from US9192648 can be followed below.

The target in the experiment is complement C5. Description: assay for the IC50 not described; told with the direct binding to C5 (FIG. 4C).

“EV576 protein (from UniProt Q5YD59 19-168)” had an IC50 of 20 µg/mL.
